Data as given in the supplement of paper PMC12042874.
± gives the uncertainty stated by the source.

Experiment: amyloid nucleation score (Sup35N fusion, yeast selection) (log enrichment); library NNK3; higher = more nucleation; inactive = no reads after selection
How it was run: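 The nucleation score is the DiMSum log enrichment of output over input reads, centred on the mode score of non-aggregating sequences. Only sequences with 100 or more input reads were scored, using Illumina sequencing of input and output plasmid inserts. Psi-negative yeast expressing Sup35N fused to peptides of 20 random codons were induced 24 hours with 100 μM copper sulfate and grown 7 days at 30°C on medium lacking adenine and uracil.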

Substance	amyloid nucleation score
TGRVCFLCYTMSLIWSSPVT	0.07 ± 0.7
TGVMRYRCLNLFVASICSVP	inactive
TGVSVECLLLWSWSVVWRCM	inactive
THKVWFKCVDAYNLAYVNSI	inactive
THLFRYKTASTDGCNESKAV	inactive
THSDYSEPRI	inactive
THVPYIT	inactive
TIGEKHCCWSLCIEETLVCD	inactive
TIGGNWGHWVVVIFV	0.064 ± 0.96
TIHHRCCSKWKSAWRAYWSI	inactive
TIPLSFFDHI	inactive
TISATLVYQ	inactive
TISDFISEEIRDLQGPVVCI	inactive
TISISR	inactive
TITCCVYDN	2.13 ± 0.053
TITKVNFWEQVRRLLQSGTQ	inactive
TIVNL	inactive
TIVTIVAFFNMERYGHFRGD	0.903 ± 0.11
TIWAGMLASR	inactive
TIYSLFSLYLGIWQAPASVY	-0.455 ± 0.53
TKGFDVPT	inactive
TKKASSYQVDWFSCCWEYGA	0.708 ± 0.26
TKKLKIPYFANFYTRFRHFK	inactive
TKMDETDLLMFAVLTGGLNG	inactive

Substance	amyloid nucleation score
TKRKCYPRLVRPGRLKGPSG	inactive
TKSPSGTHFLLVRFWSRCGR	inactive
TKYAHPPTQDDPLCGIRRSV	inactive
TLANQSHLISYYDSDHCRLL	-0.38 ± 0.78
TLASQFSFLVS	inactive
TLCNFKCVYTGSLKIFHRYM	1.91 ± 0.094
TLDILLE	inactive
TLEFHPRAINYDHRMNMFSR	inactive
TLGLRADRYKLLYFFEGFLI	inactive
TLGPKEGWLVSNWMWSRVII	inactive
TLLHLLKLSGLVSKCSTMVL	inactive
TLLMMYKVGYLAMAIRMGGL	inactive
TLNIDGFIVFRTEVKGKLSY	inactive
TLNRLDSHGSFFRMNVREGV	inactive
TLNSDVSGSNIWASSYG	inactive
TLNVFVNN	2.26 ± 0.056
TLSLPLMTRWSLYLCSDWAS	inactive
TLWLRVLSFWTVCFLVHFTM	inactive
TLWMQILDAKYRSCSLRLRR	inactive
TMFIVNTNIWSGVCISDNTW	1.78 ± 0.067
TMHQLHKFFLHMKGASIDSV	inactive
TMKGTSKVSLLVSSGASRMG	inactive
TMLYGSIRQSGDMQMSTLSV	inactive
TMRNKMAY	inactive

Substance	amyloid nucleation score
TMVLIICDN	inactive
TMVQECHYARSVSLYYNANA	inactive
TMWTTGTTPPRMISHT	inactive
TNAFRLVLTNMKI	inactive
TNCGNQTILFIIYVTILEVC	0.397 ± 0.14
TNFPLALSSRIPSASQISMQ	-0.547 ± 1.5
TNFSRYEDFVLLFCPILYAF	inactive
TNLMLSLE	inactive
TNNCCNLLCMIQNPESCSFA	3.12 ± 0.065
TNVRALA	inactive
TNWDKNYYSCYIIKGLRWER	inactive
TPAMYFPIYFSAHGHLYLFY	inactive
TPCAKTIELHWCVVERRSSY	inactive
TPIHRL	0.451 ± 0.16
TPLSHNVRIMKKLGCDRRD	inactive
TPPVWTSPSSRLASCFKGLW	1.31 ± 0.15
TQLIIAGFVPNYVVLPWSAH	1.38 ± 0.11
TQLRTVCSTW	inactive
TQSWLCRV	inactive
TRAMHSFWFESDCKY	inactive
TRDQHIIYYFVEPFKIITGM	1.5 ± 0.099
TRDRCLRFKLVPVYFVWTCG	inactive
TRGSPRGRNEKSGYTSVMRG	inactive
TRHSHLCS	inactive

Substance	amyloid nucleation score
TRLFRDNFHFLGRSLSATYV	inactive
TRMGFYKAWYTAYVWRHALL	inactive
TRNMRWNFVDLARNRASLNS	inactive
TRPESETHGMMR	inactive
TRPLSDPVLINVYWRETSYP	-0.33 ± 0.47
TRRQTGYILSTLWLAHCHFR	inactive
TRSCNLNTFKVDASGPPWHG	inactive
TRSFVRSGAWNSLEGW	1.16 ± 0.16
TRTCRIWIKSVMGRRWVIRM	inactive
TSEVVQ	inactive
TSHNGPYLSMFFRVANT	inactive
TSIIYMFNSFL	2.9 ± 0.06
TSKFPSDLWSNPPEMYALFI	inactive
TSKRDYDRCRFL	inactive
TSLDCYLMRLFLGWEALKVW	inactive
TSSFVKSFRCYSAIG	inactive
TSTDVQVGYVNMLLLRVLFF	inactive
TSVRELNLMPCDENSTICDI	inactive
TSVSPRHLVSTSTMICSFAH	inactive
TSWCNSKPCEILYVGSMAKE	inactive
TSYDFTMARYCSNDYVFIWH	2.44 ± 0.061
TSYKKRFCGQYLMLNVNMSW	inactive
TSYYSMVEHSLKYQDRLMSS	inactive
TTASFFLNKISLKNHRASCT	inactive

Substance	amyloid nucleation score
TTGLISSNGVTG	inactive
TTGMRYCLVFDIGFSFWLFM	inactive
TTHNAFMSNNNIR	0.711 ± 0.13
TTLLFMKH	inactive
TTMNVTFVPANLWCKSSHEA	inactive
TTNDWHTFSGMVIKGWHIGK	inactive
TTQILYTFY	1.56 ± 0.12
TTSEAIMLGCSISTYNQSGN	inactive
TTTAYWNESDTLRCMLV	-0.757 ± 1.4
TVCLVAITKAPRRCNSQHWD	-0.917 ± 1.9
TVCYYWRN	0.911 ± 0.2
TVERILC	inactive
TVEVFNHMRERHNYMS	inactive
TVFSDFSGSKEMTVTIRRWV	inactive
TVLGM	0.699 ± 0.17
TVLLLGRWYN	1.24 ± 0.14
TVLWFSC	inactive
TVLYLNDDIATYHRMLVFRV	inactive
TVMPLRMSSISGSAGTSA	inactive
TVQNVLCHCMMSNMAYWGHQ	2.63 ± 0.082
TVRKHLLLDHKWYVVNSEIT	inactive
TVRVYIHIYHIGFLGPMRSE	0.889 ± 0.22
